The source of these data is paper PMC10984559.

The target in this data set is T1, Mtr4 ΔSLYL (Saccharomyces cerevisiae, UniProt P47047 1-1069, del1070-1073).
T1 sequence: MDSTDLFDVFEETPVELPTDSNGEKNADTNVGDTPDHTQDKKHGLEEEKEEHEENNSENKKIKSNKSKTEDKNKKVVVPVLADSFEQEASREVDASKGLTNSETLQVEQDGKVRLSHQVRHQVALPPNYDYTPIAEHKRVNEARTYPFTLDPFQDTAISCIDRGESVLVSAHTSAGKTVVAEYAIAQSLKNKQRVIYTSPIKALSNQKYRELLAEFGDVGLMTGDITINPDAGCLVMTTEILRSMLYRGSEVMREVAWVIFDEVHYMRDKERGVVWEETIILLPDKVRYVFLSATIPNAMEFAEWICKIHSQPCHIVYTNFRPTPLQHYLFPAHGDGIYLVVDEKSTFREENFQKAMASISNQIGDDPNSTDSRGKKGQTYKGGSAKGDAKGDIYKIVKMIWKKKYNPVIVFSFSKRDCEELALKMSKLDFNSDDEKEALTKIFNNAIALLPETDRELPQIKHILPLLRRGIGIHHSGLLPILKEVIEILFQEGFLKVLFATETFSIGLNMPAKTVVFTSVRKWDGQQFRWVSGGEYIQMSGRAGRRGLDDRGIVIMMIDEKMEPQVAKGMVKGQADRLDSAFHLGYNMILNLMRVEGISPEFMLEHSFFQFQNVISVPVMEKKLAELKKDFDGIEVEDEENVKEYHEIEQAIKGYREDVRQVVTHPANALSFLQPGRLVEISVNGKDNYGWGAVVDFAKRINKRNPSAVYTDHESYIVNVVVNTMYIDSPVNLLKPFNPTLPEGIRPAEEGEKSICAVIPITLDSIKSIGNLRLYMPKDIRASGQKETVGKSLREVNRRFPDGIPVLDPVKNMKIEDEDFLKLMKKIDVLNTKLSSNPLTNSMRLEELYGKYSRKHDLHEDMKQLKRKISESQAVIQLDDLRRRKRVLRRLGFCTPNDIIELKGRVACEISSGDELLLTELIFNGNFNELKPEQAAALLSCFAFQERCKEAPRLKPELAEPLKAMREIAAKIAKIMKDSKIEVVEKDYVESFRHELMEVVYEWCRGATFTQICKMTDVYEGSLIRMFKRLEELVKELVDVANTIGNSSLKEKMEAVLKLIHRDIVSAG
Put plainly: EMSA. (Mobility shift assays separate free from complexed probe on a gel.)

B1: ds16UA5 (R16/R22A) (dsRNA)
RNA 1: AGCACCGUAAAGACGC
RNA 2: GCGUCUUUACGGUGCUUAAAAA
Take B1: the binding signal is > 5 fold Kd vs WT.
